The values below come from US20250235501A1, “Methods and Compositions for Treating or Preventing Neurological Injury or Neurological Disorders” (University of Connecticut, priority 2024, published 2025).

This test has as its target T1, NMDARs (Rattus norvegicus, UniProt Q00959+Q00960).
T1 construct: TRPM2 plasmid a gift 17928; 17924; 17925; host or cells: HEK293T
The test can be described thus: NMDAR currents in HEK-293T cells transfected with NMDARs and TRPM2 (whole cell recording). As to conditions: 10 μM peptide overnight; 10 μM NMDA, -80 mV. It is filed as cell-based, human. The method, then:
FIGS. 5G and 5H show the effects of TAT-EE3 on NMDAR currents in HEK-293T cells transfected with NMDARs and TRPM2. Transfected cells were treated with 10 μM TAT-EE3 or TAT-SC for overnight. FIG. 5G is representative NMDAR currents elicited at −80 mV by exposing to 10 μM NMDA for about 2 to 4 s.
were ordered from GenScript Biotech, and dissolved in PBS to make a stock concentration at 10 mM. HEK-293T cells or isolated neurons were treated with TAT-SC or TAT-EE3 at a concentration of 10 μM for at least 8 h prior to use. Mice were injected with TAT-SC or TAT-EE3 intraperitoneally (ip) at a dose of 100 nmol/kg.
Whole cell currents were recorded using an Axopatch 200B amplifier. Data were digitized at 10 or 20 kHz and digitally filtered offline at 1 kHz. Patch electrodes were pulled from borosilicate glass and fire-polished to a resistance of ˜3 MΩ when filled with internal solutions. Series resistance (Rs) was compensated up to 90% to reduce series resistance errors to <5 mV. Cells in which Rs was >10 MΩ were discarded (Du, J., Xie, J., and Yue, L. (2009). Modulation of TRPM2 by acidic pH and the underlying mechanisms for pH sensitivity. J Gen Physiol 134, 471-88).
For heterologous expression, transfected HEK-293 cells were identified by GFP fluorescence. […]

T1 sequence (Q00959 23-1464, other chains not shown): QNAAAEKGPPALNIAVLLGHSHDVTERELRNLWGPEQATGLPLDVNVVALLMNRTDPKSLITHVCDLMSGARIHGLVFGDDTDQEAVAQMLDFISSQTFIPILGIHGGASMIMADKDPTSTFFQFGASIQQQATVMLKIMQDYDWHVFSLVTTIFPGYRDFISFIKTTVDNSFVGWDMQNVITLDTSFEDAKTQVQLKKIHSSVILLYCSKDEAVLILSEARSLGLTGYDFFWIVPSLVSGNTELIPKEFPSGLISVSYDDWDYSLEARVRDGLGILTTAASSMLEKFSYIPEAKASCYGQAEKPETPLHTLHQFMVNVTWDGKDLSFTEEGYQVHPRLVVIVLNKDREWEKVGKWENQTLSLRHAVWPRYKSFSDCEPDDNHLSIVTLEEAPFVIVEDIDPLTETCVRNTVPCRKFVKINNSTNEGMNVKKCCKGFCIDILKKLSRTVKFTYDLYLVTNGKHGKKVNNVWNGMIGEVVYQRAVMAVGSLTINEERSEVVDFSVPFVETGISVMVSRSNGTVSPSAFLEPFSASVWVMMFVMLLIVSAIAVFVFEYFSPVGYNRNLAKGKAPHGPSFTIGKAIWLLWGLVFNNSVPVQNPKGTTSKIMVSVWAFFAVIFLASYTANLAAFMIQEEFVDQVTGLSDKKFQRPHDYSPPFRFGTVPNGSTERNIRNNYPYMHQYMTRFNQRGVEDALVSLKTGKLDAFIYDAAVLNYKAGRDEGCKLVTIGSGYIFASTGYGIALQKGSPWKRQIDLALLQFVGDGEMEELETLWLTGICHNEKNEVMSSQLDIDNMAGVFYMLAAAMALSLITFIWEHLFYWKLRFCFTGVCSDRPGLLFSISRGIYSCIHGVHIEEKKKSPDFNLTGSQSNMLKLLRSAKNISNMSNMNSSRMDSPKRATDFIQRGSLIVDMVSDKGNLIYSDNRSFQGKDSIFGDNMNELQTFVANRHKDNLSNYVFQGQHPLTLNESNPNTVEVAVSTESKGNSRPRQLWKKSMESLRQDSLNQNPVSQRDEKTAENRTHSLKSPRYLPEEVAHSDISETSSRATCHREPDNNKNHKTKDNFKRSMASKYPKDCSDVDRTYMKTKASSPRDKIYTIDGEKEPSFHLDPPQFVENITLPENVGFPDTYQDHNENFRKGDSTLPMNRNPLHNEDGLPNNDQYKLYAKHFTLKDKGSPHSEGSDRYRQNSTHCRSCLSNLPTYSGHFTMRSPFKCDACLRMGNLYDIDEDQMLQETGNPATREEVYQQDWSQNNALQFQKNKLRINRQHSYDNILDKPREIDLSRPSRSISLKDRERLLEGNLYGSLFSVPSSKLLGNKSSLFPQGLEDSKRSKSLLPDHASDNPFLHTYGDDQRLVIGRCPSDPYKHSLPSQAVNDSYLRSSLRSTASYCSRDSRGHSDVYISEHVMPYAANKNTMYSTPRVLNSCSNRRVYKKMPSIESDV
T1 sequence (Q00960 27-1482, other chains not shown): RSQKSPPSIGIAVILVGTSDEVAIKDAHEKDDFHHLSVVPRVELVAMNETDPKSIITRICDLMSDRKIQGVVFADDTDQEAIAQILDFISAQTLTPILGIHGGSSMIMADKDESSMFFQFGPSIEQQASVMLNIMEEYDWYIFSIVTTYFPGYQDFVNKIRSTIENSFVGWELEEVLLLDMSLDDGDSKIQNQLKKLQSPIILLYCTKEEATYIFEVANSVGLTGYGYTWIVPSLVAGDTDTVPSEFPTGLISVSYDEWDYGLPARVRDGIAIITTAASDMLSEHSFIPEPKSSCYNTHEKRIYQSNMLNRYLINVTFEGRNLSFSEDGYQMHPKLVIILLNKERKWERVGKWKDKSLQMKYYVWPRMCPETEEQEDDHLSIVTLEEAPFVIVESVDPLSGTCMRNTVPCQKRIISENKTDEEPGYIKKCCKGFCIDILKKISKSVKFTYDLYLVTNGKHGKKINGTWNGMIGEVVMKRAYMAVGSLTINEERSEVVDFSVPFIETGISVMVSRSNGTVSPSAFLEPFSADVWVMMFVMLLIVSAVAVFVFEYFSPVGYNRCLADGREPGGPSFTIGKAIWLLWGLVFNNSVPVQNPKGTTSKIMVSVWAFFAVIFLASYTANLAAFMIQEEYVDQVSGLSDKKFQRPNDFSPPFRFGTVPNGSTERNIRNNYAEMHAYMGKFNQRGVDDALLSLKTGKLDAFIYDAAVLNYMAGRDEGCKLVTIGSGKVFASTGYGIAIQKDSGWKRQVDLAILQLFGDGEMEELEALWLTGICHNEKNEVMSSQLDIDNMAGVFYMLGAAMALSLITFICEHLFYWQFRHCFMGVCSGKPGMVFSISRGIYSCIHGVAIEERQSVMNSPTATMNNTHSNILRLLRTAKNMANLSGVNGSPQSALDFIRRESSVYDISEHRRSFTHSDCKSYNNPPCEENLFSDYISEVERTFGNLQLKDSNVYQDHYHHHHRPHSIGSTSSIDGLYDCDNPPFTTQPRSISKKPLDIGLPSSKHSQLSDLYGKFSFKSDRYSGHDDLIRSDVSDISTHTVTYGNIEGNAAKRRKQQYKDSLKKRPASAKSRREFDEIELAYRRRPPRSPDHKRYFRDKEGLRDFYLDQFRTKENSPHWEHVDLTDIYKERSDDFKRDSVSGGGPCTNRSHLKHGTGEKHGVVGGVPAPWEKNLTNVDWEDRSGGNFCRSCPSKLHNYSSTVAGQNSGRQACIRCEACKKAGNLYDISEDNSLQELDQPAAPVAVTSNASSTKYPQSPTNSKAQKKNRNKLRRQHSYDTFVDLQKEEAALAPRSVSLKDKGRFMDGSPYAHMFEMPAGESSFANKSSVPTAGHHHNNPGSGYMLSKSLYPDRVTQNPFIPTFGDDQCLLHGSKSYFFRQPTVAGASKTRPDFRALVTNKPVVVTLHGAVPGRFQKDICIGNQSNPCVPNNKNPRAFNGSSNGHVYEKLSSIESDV

For the substance “TAT-EE3: membrane permeable disrupting peptide, sequence YGRKKRRQRRREEDTDSSEEMLALAEE (SEQ ID NO: 4)”, the NMDAR current amplitude result was “significantly smaller than that in cells treated with TAT-SC”.
